Measurements published in patent publication US5770717.

Target: activation domain-fused yeast RPB4 protein (RPB4 in JG4-5) (yeast (Saccharomyces cerevisiae)) (UniProt P20433)
Test: two-hybrid interaction trap in yeast, beta-galactosidase assay with and without activation domain-fused RPB4

degree of enhancement of activation (beta-galactosidase assay): 60 fold
Substance: LexA-RPB7 fusion protein (yeast RPB7) (from UniProt P34087)
